Assay results reported in the supplement of paper PMC9233669.
Variants at the floor of the assay were thinned out.

Columns and labels:
[1] = test system: biotinyl-Phe-oxazolone; assay: self-aminoacylation, catalytic enhancement (BFO) (fold over background); higher = more active; k-Seq, kA / k0A0; sequences stand for … in GGGAAUGGAUCCACAUCUACGAAUUC…UUCACUGCAGACUUGACGAAGCUG
How it was run: (§1)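 Mutagenized RNA pools with a 21-nt variable region (0.43 μM) reacted with each biotinyl-aminoacyl-oxazolone at 2–1250 μM. Reactions ran in 50 μL HEPES/NaCl/KCl/MgCl2/CaCl2 buffer with 5% acetonitrile, pH 6.9–7.0, for 90 minutes at room temperature. Streptavidin-captured RNA was quantified by triplicate qPCR and Illumina sequencing, and per-sequence fraction reacted was fit to a pseudo-first-order model with 1000 bootstraps. Catalytic enhancement is median kA divided by the uncatalyzed rate, the low-activity peak of a bimodal Gaussian fit.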

[2] = test system: biotinyl-Ile-oxazolone; assay: self-aminoacylation, catalytic enhancement (BIO) (fold over background); higher = more active; k-Seq, kA / k0A0; sequences stand for … in GGGAAUGGAUCCACAUCUACGAAUUC…UUCACUGCAGACUUGACGAAGCUG
How it was run: as §1

[3] = test system: biotinyl-Met-oxazolone; assay: self-aminoacylation, catalytic enhancement (BMO) (fold over background); higher = more active; k-Seq, kA / k0A0; sequences stand for … in GGGAAUGGAUCCACAUCUACGAAUUC…UUCACUGCAGACUUGACGAAGCUG
How it was run: as §1

[4] = test system: biotinyl-Val-oxazolone; assay: self-aminoacylation, catalytic enhancement (BVO) (fold over background); higher = more active; k-Seq, kA / k0A0; sequences stand for … in GGGAAUGGAUCCACAUCUACGAAUUC…UUCACUGCAGACUUGACGAAGCUG
How it was run: as §1

[5] = test system: biotinyl-Leu-oxazolone; assay: self-aminoacylation, catalytic enhancement (BLO) (fold over background); higher = more active; k-Seq, kA / k0A0; sequences stand for … in GGGAAUGGAUCCACAUCUACGAAUUC…UUCACUGCAGACUUGACGAAGCUG
How it was run: as §1

[6] = test system: biotinyl-Trp-oxazolone; assay: self-aminoacylation, catalytic enhancement (BWO) (fold over background); higher = more active; k-Seq, kA / k0A0; sequences stand for … in GGGAAUGGAUCCACAUCUACGAAUUC…UUCACUGCAGACUUGACGAAGCUG
How it was run: as §1

Sequence	self-aminoacylation [1]	self-aminoacylation [2]	self-aminoacylation [3]	self-aminoacylation [4]	self-aminoacylation [5]	self-aminoacylation [6]
AAAUUGGCUAAUAGUCGCAAG [Fam3.1 aminoacylation ribozyme variant]	2.72	2.32	1.84	2.05	2.05	3.11
AAAUUUGCUAAUAGUCGCAAA [Fam3.1 aminoacylation ribozyme variant]	2.95	3.32	3.08	2.41	3.17	3.82
AAAUUUGCUAAUAGUCGCAGG [Fam3.1 aminoacylation ribozyme variant]	2.3	1.97	2.11	1.79	2.47	3.16
AAAUUUGUUAAUAGUCGCAAG [Fam3.1 aminoacylation ribozyme variant]	2.69	2.11	2.04	1.59	1.99	1.76
AACUUUGCUAAUAAUCGCAAG [Fam3.1 aminoacylation ribozyme variant]	3.06	1.93	1.96	1.96	2.04	2.71
AACUUUGCUAAUAGGCGCAAG [Fam3.1 aminoacylation ribozyme variant]	3.02	2.36	1.7	2.05	1.79	1.96
AACUUUGCUAAUAGUGGCAAG [Fam3.1 aminoacylation ribozyme variant]	1.37	1.07	0.764	0.919	1.44	1.11
AACUUUGCUAAUAUUCGCAAG [Fam3.1 aminoacylation ribozyme variant]	1.42	1.76	1.51	1.65	1.94	1.75
AAGAUUGCUAAUAGUCGCAAU [Fam3.1 aminoacylation ribozyme variant]	2.37	1.54	1.85	1.41	1.37	1.14
AAGAUUGCUAAUAGUCGCGAG [Fam3.1 aminoacylation ribozyme variant]	1.27	1.3	1.94	1.44	1.1	1.1
AAGAUUGCUAAUAUUCGCAAG [Fam3.1 aminoacylation ribozyme variant]	1.44	2.02	1.42	1.5	1.58	2.51
AAGAUUGCUAAUGGUCGCAAG [Fam3.1 aminoacylation ribozyme variant]	1.11	1.21	1.51	1.14	1.07	1.06
AAGAUUGCUAGUAGUCGCAAG [Fam3.1 aminoacylation ribozyme variant]	1.28	1.36	1.83	1.61	1.89	1.48
AAGAUUGCUCAUAGUCGCAAG [Fam3.1 aminoacylation ribozyme variant]	1.91	1.45	1.56	1.62	1.95	2.09
AAGCUUGCGAAUAGUCGCAAG [Fam3.1 aminoacylation ribozyme variant]	2.7	2.39	2.12	1.64	2.2	2.32
AAGCUUGCUAAUACUCGCAAG [Fam3.1 aminoacylation ribozyme variant]	1.31	1.5	0.693	1.26	0.856	1.98
AAGCUUGCUAAUAGUAGCAAG [Fam3.1 aminoacylation ribozyme variant]	2.27	1.39	1.08	1.3	1.55	2.48
AAGCUUGCUAAUAGUCGCACG [Fam3.1 aminoacylation ribozyme variant]	4.41	1.81	1.29	1.76	1.6	1.33
AAGCUUGCUAAUAGUCGCGAG [Fam3.1 aminoacylation ribozyme variant]	26.9	2.66	3.36	1.9	2.66	3.85
AAGCUUGCUAAUAGUCGGAAG [Fam3.1 aminoacylation ribozyme variant]	3.45	1.48	1.34	1.3	1.21	1.65
AAGCUUGCUAAUGGUCGCAAG [Fam3.1 aminoacylation ribozyme variant]	2.3	1.77	2.83	1.76	1.83	3.95
AAGCUUUCUAAUAGUCGCAAG [Fam3.1 aminoacylation ribozyme variant]	3.08	2.02	1.44	1.71	1.81	1.93

Sequence	self-aminoacylation [1]	self-aminoacylation [2]	self-aminoacylation [3]	self-aminoacylation [4]	self-aminoacylation [5]	self-aminoacylation [6]
AAGGCUGCUAAUAGUCGCAAG [Fam3.1 aminoacylation ribozyme variant]	20	1.73	2.04	1.38	1.64	7.19
AAGGUGGCUAAUAGUCGCAAG [Fam3.1 aminoacylation ribozyme variant]	1.82	1.63	1.65	1.41	1.74	1.95
AAGGUUGCUAAAAGUCGCAAG [Fam3.1 aminoacylation ribozyme variant]	4.28	1.62	1.52	1.67	1.6	1.93
AAGGUUGCUAACAGUCGCAAG [Fam3.1 aminoacylation ribozyme variant]	3.97	1.33	1.06	1.11	1.83	1.65
AAGGUUGCUAAUAGUCACAAG [Fam3.1 aminoacylation ribozyme variant]	4.71	1.71	1.72	1.32	1.57	1.72
AAGUAAGCUAAUAGUCGCAAG [Fam3.1 aminoacylation ribozyme variant]	2.82	1.55	1.18	1.33	1.43	1.5
AAGUAUGCGAAUAGUCGCAAG [Fam3.1 aminoacylation ribozyme variant]	1.74	1.32	1.13	1	1.19	0.948
AAGUAUGCUAAUAGACGCAAG [Fam3.1 aminoacylation ribozyme variant]	1.04	0.823	0.824	0.637	0.725	0.756
AAGUAUGCUAAUAGUAGCAAG [Fam3.1 aminoacylation ribozyme variant]	1.46	1.53	1.22	1.46	1.54	0.882
AAGUAUGCUAAUAGUCGCAGG [Fam3.1 aminoacylation ribozyme variant]	2.31	1.44	1.37	1.48	1.46	1.2
AAGUAUGCUAAUAGUCGGAAG [Fam3.1 aminoacylation ribozyme variant]	11.1	1.64	1.72	1.29	1.42	4.24
AAGUAUGCUAAUAGUUGCAAG [Fam3.1 aminoacylation ribozyme variant]	2.31	1.44	1.71	1.38	1.11	1.73
AAGUAUGCUAAUAUUCGCAAG [Fam3.1 aminoacylation ribozyme variant]	1.45	1.95	1.76	1.46	2.04	2.45
AAGUAUGUUAAUAGUCGCAAG [Fam3.1 aminoacylation ribozyme variant]	1.49	1.44	1.4	1.24	1.44	1.38
AAGUCUGCUAAUAGUCUCAAG [Fam3.1 aminoacylation ribozyme variant]	19.4	1.14	1.76	1.2	1.43	4.59
AAGUCUGCUAAUAUUCGCAAG [Fam3.1 aminoacylation ribozyme variant]	2.54	1.11	1.49	1.06	1.06	1.77
AAGUCUGCUACUAGUCGCAAG [Fam3.1 aminoacylation ribozyme variant]	0.846	0.699	0.856	0.84	1.15	0.731
AAGUCUGGUAAUAGUCGCAAG [Fam3.1 aminoacylation ribozyme variant]	2.18	1.17	1.16	0.918	0.903	0.868
AAGUGGGCUAAUAGUCGCAAG [Fam3.1 aminoacylation ribozyme variant]	2.27	1.6	1.56	1.32	1.44	1.73
AAGUGUGCUAAUAGUCGCAAG [Fam3.1 aminoacylation ribozyme variant]	21.7	1.56	1.69	1.36	1.36	6.71
AAGUGUGCUACUAGUCGCAAG [Fam3.1 aminoacylation ribozyme variant]	1.71	1.29	1.33	1.04	0.938	1.41
